Among the data in publication PMC7040854 are Kd values, retold here.

One assay concerns the target FGFR2K^R678E (human). As to the kind of experiment: NMR CPMG relaxation dispersion.
For another assay, the target named is FGFR2K^R678G (human). As to the kind of experiment: NMR CPMG relaxation dispersion.

Usually Kd stands for the equilibrium constant for the complex coming apart. As to FGFR2K^R678E (domain or fragment), in the assay with FGFR2K^R678E (human), the Kd came out at 8 mM.
FGFR2K^R678G (domain or fragment) showed a Kd in the assay with FGFR2K^R678G (human) of 55 mM.
